Assay results from patent US20260347455 (published 2026).

How the values were obtained:
[1] = target: T1, human BMP6 (Peprotech 120-06) (human); test: SPR, 37C, pH 7.6
T1 chain: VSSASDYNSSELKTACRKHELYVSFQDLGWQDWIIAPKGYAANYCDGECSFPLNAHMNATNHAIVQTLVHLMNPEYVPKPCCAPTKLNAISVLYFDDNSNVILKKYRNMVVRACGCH

[2] = target: T1, human BMP6 (Peprotech 120-06); test: SPR, 37C, pH 7.6, bivalent (relative KD)

B1: CL-58838 Fab (antibody, V domains shown)
VH: QVQLVESGGGLVKPGGSLRLSCAASGFTFSDYYMSWIRQAPGKGLEWVSYISISGSTIYYADSVKGRFTISRDNAMDSLYLQMNSLRAEDTAVYYCARRSSGWYDYWGQGTLVTVSS
VL: EIVLTQSPGTLSLSPGERATLSCWASQRVVYRYLAWYQRKPGQAPRLLIYGAFNRATGIPDRFSGSGSGTDFSLTISRLEPEDFAVYYCHQYGSSPPTFGQGTKVEIK
In the case of B1, the Kd [1] is reported as 0.14 nM.

B2: CL-58838 IgG4 (antibody, V domains shown)
VH: B1 VH
VL: EIVLTQSPGTLSLSPGERATLSCWASQRVVYRYLAWYQRKPGQAPRLLIYGAFNRATGIPDRFSGSGSGTDFSLTISRLEPEDFAVYYCHQYGSSPPTFGQGTKVEIKR
B2 gave a Kd [2] of 0.07 nM.
